Values quoted from earlier work in article PMC3140970.

Target: IRSp53 SH3 (UniProt Q9UQB8)
Sequence (Q9UQB8 374-437): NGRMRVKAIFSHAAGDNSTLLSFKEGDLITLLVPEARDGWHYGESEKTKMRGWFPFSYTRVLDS

Eps8, sequence (Q08509 whole entry): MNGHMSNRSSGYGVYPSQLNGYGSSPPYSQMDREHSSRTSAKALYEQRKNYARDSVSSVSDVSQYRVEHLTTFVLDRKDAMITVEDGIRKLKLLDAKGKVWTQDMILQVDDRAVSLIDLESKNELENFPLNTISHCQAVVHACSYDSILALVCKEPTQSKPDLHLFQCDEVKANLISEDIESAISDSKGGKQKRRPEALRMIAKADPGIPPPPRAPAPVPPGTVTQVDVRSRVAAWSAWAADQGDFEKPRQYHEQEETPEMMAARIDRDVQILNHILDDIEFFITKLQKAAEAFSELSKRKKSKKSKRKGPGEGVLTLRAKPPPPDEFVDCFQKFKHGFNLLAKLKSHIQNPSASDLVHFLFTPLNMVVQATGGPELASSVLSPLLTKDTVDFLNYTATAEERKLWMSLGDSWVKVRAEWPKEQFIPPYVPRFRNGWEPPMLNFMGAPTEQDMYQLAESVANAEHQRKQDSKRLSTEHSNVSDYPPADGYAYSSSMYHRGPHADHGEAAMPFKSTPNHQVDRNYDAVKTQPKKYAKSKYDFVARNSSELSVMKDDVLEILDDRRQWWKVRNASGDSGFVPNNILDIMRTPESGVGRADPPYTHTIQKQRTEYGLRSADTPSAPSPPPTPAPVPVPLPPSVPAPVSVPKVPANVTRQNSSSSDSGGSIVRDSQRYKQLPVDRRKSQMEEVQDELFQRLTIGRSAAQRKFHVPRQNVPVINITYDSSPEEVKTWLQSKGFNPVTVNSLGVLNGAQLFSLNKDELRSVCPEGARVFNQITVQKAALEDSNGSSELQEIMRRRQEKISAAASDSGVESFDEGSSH

Kd: 0.01 µM
Substance: Eps8 (from UniProt Q08509)
